# PMC5562350
# B1: DH270.6 (antibody, V domains shown)
# VH: QVQLVQSGAQMKNPGASVKVSCAPSGYTFTDFYIHWLRQAPGQGLQWMGWMNPQTGRTNTARNFQGRVTMTRDTSIGTAYMELRSLTSDDTAIYYCTTGGWISLYYDSSYYPNFDHWGQGTLLTVSS
# VL: QSALTQPASVSGSPGQSITISCTGTKYDVGSHDLVSWYQQYPGKVPKYMIYEVNKRPSGVSNRFSGSKSGNTASLTISGLRAEDEADYYCCSFGGSATVVCGGGTKVTVL
# Molecular target: Man9-V3 glycopeptide (HIV-1 (strain not stated))
row,Molecule,Kd
1,DH270.1 (antibody),0.331 µM
2,DH270.IA2 (antibody),> 10 µM
3,DH270.IA3 (antibody),> 10 µM
4,DH270.IA4 (antibody),> 10 µM
5,DH270.UCA (antibody),> 10 µM
6,B1,0.188 µM
